Three molecules from patent US20190321401A1 (JUNO THERAPEUTICS, published 2019) can be followed below.

To fix the notation:
T1: HPV 16 E7 peptide on HLA-A*02:01 (human)
T1 peptide: YMLDLQPET

T2: HPV 16 E6 peptide on HLA-A*02:01 (human)
T2 peptide: TIHDIILECV

B1: TCR 61 (TCR, V domains shown)
Valpha: QKEVEQNSGPLSVPEGAIASLNCTYSDRGSQSFFWYRQYSGKSPELIMFIYSNGDKEDGRFTAQLNKASQYVSLLIRDSQPSDSATYLCAVNIENNNARLMFGDGTQLVVKP
Vbeta: EPEVTQTPSHQVTQMGQEVILRCVPISNHLYFYWYRQILGQKVEFLVSFYNNEISEKSEIFDDQFSVERPDGSNFTLKIRSTKLEDSAMYFCASTKRFSYEQYFGPGTRLTVT
B2: TCR 62 (TCR, V domains shown)
Valpha: AQTVTQSQPEMSVQEAETVTLSCTYDTSENNYYLFWYKQPPSRQMILVIRQEAYKQQNATENRFSVNFQKAAKSFSLKISDSQLGDTAMYFCALYTYKYIFGTGTRLKVLA
Vbeta: EAGVAQSPRYKIIEKRQSVAFWCNPISGHATLYWYQQILGQGPKLLIQFQNNGVVDDSQLPKDRFSAERLKGVDSTLKIQPAKLEDSAVYLCASSLDTRGSSYNEQFFGPGTRLTVL
B3: TCR 65 (TCR, V domains shown)
Valpha: EDQVTQSPEALRLQEGESSSLNCSYTVSGLRGLFWYRQDPGKGPEFLFTLYSAGEEKEKERLKATLTKKESFLHITAPKPEDSATYLCAVQAERGSTLGRLYFGRGTQLTVWP
Vbeta: DVKVTQSSRYLVKRTGEKVFLECVQDMDHENMFWYRQDPGLGLRLIYFSYDVKMKEKGDIPEGYSVSREKKERFSLILESASTNQTSMYLCASSLWGRRNTGELFFGEGSRLTVL

The target of the first assay is T1, HPV 16 E7 peptide on HLA-A*02:01. The assay is described as follows: multimer staining.
As to B1, the binding result is given as “recognises”.

On to B2, for which the binding result is “recognises”.

For B3, the binding result was “no recognition”.

In the next assay the target is T2, HPV 16 E6 peptide on HLA-A*02:01. The assay is described as follows: multimer staining.
As to B1, the binding result is given as “no recognition”.

For B2, the binding result is given as “no recognition”.

Turning to B3, the binding result was “recognises”.
